Results taken from paper PMC8956578, “The inner side of yeast PCNA contributes to genome stability by mediating interactions with Rad18 and the replicative DNA polymerase δ” (Scientific Reports, 2022).

Target: the molecule itself
Assay: native gel or EMSA; increasing concentrations of purified wild-type and mutant PCNA on a 12% non-denaturing polyacrylamide gel

B1: wild-type PCNA (proliferating cell nuclear antigen), purified (natural protein, yeast, UniProt P15873 1-258, looked up)
chain: MLEAKFEEASLFKRIIDGFKDCVQLVNFQCKEDGIIAQAVDDSRVLLVSLEIGVEAFQEYRCDHPVTLGMDLTSLSKILRCGNNTDTLTLIADNTPDSIILLFEDTKKDRIAEYSLKLMDIDADFLKIEELQYDSTLSLPSSEFSKIVRDLSQLSDSINIMITKETIKFVADGDIGSGSVIIKPFVDMEHPETSIKLEMDQPVDLTFGAKYLLDIIKGSSLSDRVGIRLSSEAPALFQFDLKSGFLQFFLAPKFNDEE
notes: PCNA (POL30), yeast; open reading frame cloned in N-terminal fusion with GST; also called Pol30; source: protease deficient yeast strain BJ5464, galactose inducible promoter (pBJ842 backbone), purified
stoichiometry N: 3
